{"source": "patent US8541552", "target": "T1, LTα1β2 (human, UniProt P01374)", "T1 chain 1": "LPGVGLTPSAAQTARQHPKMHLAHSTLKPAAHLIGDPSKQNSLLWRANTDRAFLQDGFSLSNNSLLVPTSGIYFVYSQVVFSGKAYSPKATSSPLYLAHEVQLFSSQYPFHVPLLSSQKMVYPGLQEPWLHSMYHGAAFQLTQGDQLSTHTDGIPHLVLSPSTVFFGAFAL", "T1 chain 2": "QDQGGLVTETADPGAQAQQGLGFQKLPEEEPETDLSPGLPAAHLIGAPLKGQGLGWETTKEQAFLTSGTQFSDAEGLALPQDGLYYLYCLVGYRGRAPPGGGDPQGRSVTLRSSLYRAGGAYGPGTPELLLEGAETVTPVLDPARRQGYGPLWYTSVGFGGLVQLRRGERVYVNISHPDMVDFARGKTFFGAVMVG", "test": "ELISA", "data": [{"binder": "TNFRII.Fc (protein) LPAQVAFTPYAPEPGSTCRLREYYDQTAQMCCSKCSPGQHAKVFCTKTSDTVCDSCEDSTYTQLWNWVPECLSCGSRCSSDQVETQACTREQNRICTCRPGWYCALSKQEGCRLCAPLRKCRPGFGVARPGTETSDVVCKPCAPGTFSNTTSSTDICRPHQICNVVAIPGNASMDAVCTSTSPTRSMAPGAVHLPQPVSTRSQHTQPTPEPSTAPSTSFLLPMGPSPPAEGSTGD", "values": [{"measurement": "binding result", "value": "no binding"}]}]}
